Data reported in paper PMC7772355, “Transmembrane Peptides as a New Strategy to Inhibit Neuraminidase-1 Activation” (Frontiers in Cell and Developmental Biology, 2020).

B1: hNEU1-TMS2 (domain or fragment)
chain: not shown
modifications: 15N-labeled
notes: human NEU1, residues R305-R341, holding the transmembrane segment TM2; Embedded in DPC micelles for NMR; also called hNEU1/TMS2 fragment; hNEU1 TM2 segment; source: bacterial expression and purification as described in Maurice et al. (2016)

Columns and labels:
[1] = target: the molecule itself; assay: NMR titration; homodimerisation: 0.4 mM 15N-labeled hNEU1-TMS2 in DPC micelles, D/P 50 titrated with DPC to 110 (further samples to D/P 200); pH 6.5, 20 mM sodium phosphate, 313 K, 800 MHz, 1H/15N-TROSY
hNEU1-TMS2 = target: B1; assay: NMR titration; heterodimerisation: 0.3 mM 15N-labeled hNEU1-TMS2 in DPC micelles (D/P 120) titrated with unlabeled recombinant peptide in micelles up to N/I of 1 (D/P near 100); pH 6.5, 20 mM sodium phosphate, 313 K, 1H/15N-TROSY; details: both partners purified

| binding result (hNEU1-TMS2) | Binder | stoichiometry N [1] |
| --- | --- | --- |
|  | B1 | 2 |
| binds | GSMWHHHHHHGGELVDPVVVAIAVVTSSIIAFFSN (holds the His6; not NEU1; human NEU1, TM2 segment with four point mutations; The gene construct had GB1 as leading fusion protein followed by a thrombin cleavage site; the printed peptide begins with GS, so GB1 was probably cleaved off (surmised); Unlabeled; embedded in DPC micelles; also called recombinant version of the four-point mutated peptide IntPep; source: continuous exchange cell-free …) [mutIntPepR] |  |
